Our source for the abundance fitness values is the Human Domainome abundance scans (Beltran et al. 2025).

± gives the uncertainty stated by the source.

B1: CD2-associated protein, residues 1 to 59; numbered along this chain, Q9Y5K6 (parent)
chain: MVDYIVEYDYDAVHDDELTIRVGEIIRNVKKLQEEGWLEGELNGRRGMFPDNFVKEIKR

Variants of B1 are the subject of this data set. The experiment in a line: abundance fitness (aPCA) (normalised: wild type 0, dead -1); higher = more abundant; growth selection in yeast, the domain comes from the species named. The following applies: Homo sapiens.
Consider MVDYIVEYDYDAVHDDELTIRVGEIIRNVKKLQEEGWLEGELNGRRGMFPDNFVKEIKG [R59G], for which the abundance fitness was found to be 0.011 ± 0.097.

On to CVDYIVEYDYDAVHDDELTIRVGEIIRNVKKLQEEGWLEGELNGRRGMFPDNFVKEIKR [M1C], for which the abundance fitness is -0.28 ± 0.15.

For the variant FVDYIVEYDYDAVHDDELTIRVGEIIRNVKKLQEEGWLEGELNGRRGMFPDNFVKEIKR [M1F], the abundance fitness was -0.137 ± 0.38.

On to WVDYIVEYDYDAVHDDELTIRVGEIIRNVKKLQEEGWLEGELNGRRGMFPDNFVKEIKR [M1W], for which the abundance fitness was -0.163 ± 0.1.

With AVDYIVEYDYDAVHDDELTIRVGEIIRNVKKLQEEGWLEGELNGRRGMFPDNFVKEIKR [M1A], the abundance fitness stood at 0.05 ± 0.4.

Consider EVDYIVEYDYDAVHDDELTIRVGEIIRNVKKLQEEGWLEGELNGRRGMFPDNFVKEIKR [M1E], for which the abundance fitness was -0.276 ± 0.23.

For MVDYIVEYDYDAVHDDELTIRVGEIIRNVKKLQEEGWLEGELNGRRGMFPDNFVGEIKR [K55G], the abundance fitness was -0.216 ± 0.1.

MVDYIVEYDYDAVHDDELTIRVGEIIRNVKKLQEEGWLEGELNGRRGMFPDNFVLEIKR [K55L]: the abundance fitness is -0.303 ± 0.094.

MVDYIVEYDYDAVHDDALTIRVGEIIRNVKKLQEEGWLEGELNGRRGMFPDNFVKEIKR [E17A]: the abundance fitness was -0.628 ± 0.13.

For MVDYIVEYDYDAVHDDELTIRVGEIIRNVKKLQEEGWLEGELRGRRGMFPDNFVKEIKR [N43R], the abundance fitness was -0.082 ± 0.089.

With MVDCIVEYDYDAVHDDELTIRVGEIIRNVKKLQEEGWLEGELNGRRGMFPDNFVKEIKR [Y4C], the abundance fitness was -0.173 ± 0.14.

Consider MVDYIVEYDYDAVHDDELTIRVGEIIRNVKKLQEEGWLEGELNGRRGMFPNNFVKEIKR [D51N], for which the abundance fitness turned out to be 0.191 ± 0.3.

Consider MVDYIVEYDYDAVHDDELTIRVGEIIRNVKKLQEEGWLEGELNGRRGMFPSNFVKEIKR [D51S], for which the abundance fitness is -0.055 ± 0.057.

With MVDYIVEYDYDAVHDDELTIRVGEIIRNVKKLQAEGWLEGELNGRRGMFPDNFVKEIKR [E34A], the abundance fitness is -0.048 ± 0.13.

For the variant MVDYIVEYDYDAVHDDELTIRVGEIIRNVVKLQEEGWLEGELNGRRGMFPDNFVKEIKR [K30V], the abundance fitness is -0.166 ± 0.13.

Turning to MVDYIVEYDYDAVHDDELTIRVGEIIRNVLKLQEEGWLEGELNGRRGMFPDNFVKEIKR [K30L], the abundance fitness is -0.191 ± 0.09.

As for MVDYIVEYDYDAVHDDELTIRVGEIIRNVGKLQEEGWLEGELNGRRGMFPDNFVKEIKR [K30G], the abundance fitness is -0.127 ± 0.1.

As for MVDYIVEYDYDAVHDDELTIRVGEIIRNVEKLQEEGWLEGELNGRRGMFPDNFVKEIKR [K30E], the abundance fitness was 0.007 ± 0.18.

MVDYIVEYDYDAVHDDELTIREGEIIRNVKKLQEEGWLEGELNGRRGMFPDNFVKEIKR [V22E]: the abundance fitness amounted to 0.115 ± 0.16.

Take MVDYIVEYDYDAVHDDELTIRAGEIIRNVKKLQEEGWLEGELNGRRGMFPDNFVKEIKR [V22A]: the abundance fitness came out at 0.16 ± 0.15.

With MVDYIVEYDYDAVHDDELTIRGGEIIRNVKKLQEEGWLEGELNGRRGMFPDNFVKEIKR [V22G], the abundance fitness is -0.02 ± 0.19.

In the case of MVDYIVEYDYDAVHDDELTIRVGEIIRNVKKLQEEGWLEGMLNGRRGMFPDNFVKEIKR [E41M], the abundance fitness is -0.312 ± 0.2.

With MVDYIVEYDYDAVHDDELTIRVGEIIRNVKKLREEGWLEGELNGRRGMFPDNFVKEIKR [Q33R], the abundance fitness is -0.084 ± 0.083.

Consider MVDYIVEYDYDAVHDDELTIRVGEIIRNVKKLKEEGWLEGELNGRRGMFPDNFVKEIKR [Q33K], for which the abundance fitness is -0.07 ± 0.12.

Take MVDYIVEYDYDSVHDDELTIRVGEIIRNVKKLQEEGWLEGELNGRRGMFPDNFVKEIKR [A12S]: the abundance fitness was -0.157 ± 0.088.

For MVDYIVEYDYDIVHDDELTIRVGEIIRNVKKLQEEGWLEGELNGRRGMFPDNFVKEIKR [A12I], the abundance fitness was -0.782 ± 0.21.

With MVDYIVEYDSDAVHDDELTIRVGEIIRNVKKLQEEGWLEGELNGRRGMFPDNFVKEIKR [Y10S], the abundance fitness was -0.999 ± 0.17.

With MVDYIVEYDVDAVHDDELTIRVGEIIRNVKKLQEEGWLEGELNGRRGMFPDNFVKEIKR [Y10V], the abundance fitness was -1.06 ± 0.39.

Turning to MVDYIVEYDYDAVHDDELTIRVGEIIRNVKKLQEEEWLEGELNGRRGMFPDNFVKEIKR [G36E], the abundance fitness is -0.659 ± 0.38.

MVDYIVEYDYDAVHDDELTIRVGEIIRNVKKLQEEFWLEGELNGRRGMFPDNFVKEIKR [G36F]: the abundance fitness was -0.622 ± 0.15.

As for MVDYIVEYDYDAKHDDELTIRVGEIIRNVKKLQEEGWLEGELNGRRGMFPDNFVKEIKR [V13K], the abundance fitness is -0.074 ± 0.14.

Consider MVDYIVEYDYDASHDDELTIRVGEIIRNVKKLQEEGWLEGELNGRRGMFPDNFVKEIKR [V13S], for which the abundance fitness worked out at 0.067 ± 0.1.

MVDYIVEYDYDAGHDDELTIRVGEIIRNVKKLQEEGWLEGELNGRRGMFPDNFVKEIKR [V13G]: the abundance fitness is -0.046 ± 0.079.

For the variant MVDYIVEYDYDAVHDDELTIRVGEIIRNVKKLQEEGWLEGELNGRRGKFPDNFVKEIKR [M48K], the abundance fitness is 0.093 ± 0.097.

Regarding MVDYIVEYDYDAVHDDELTIRVGEIIRNRKKLQEEGWLEGELNGRRGMFPDNFVKEIKR [V29R], the abundance fitness was -1.04 ± 0.31.

MVDYIVEYDYDAVHDDELTIRVGEIIRNVKKLQEEGWLEGELNGRRGMFPDNHVKEIKR [F53H]: the abundance fitness was found to be 0.111 ± 0.11.

Turning to MVDYIVEYDYDAVHDDELTIRVGEIIHNVKKLQEEGWLEGELNGRRGMFPDNFVKEIKR [R27H], the abundance fitness was 0.059 ± 0.069.

With MVDYIVEYDYDAVHDDELTIRVGEIINNVKKLQEEGWLEGELNGRRGMFPDNFVKEIKR [R27N], the abundance fitness is -0.173 ± 0.075.

As to MVDYIVEYDYDAVHDDELTIRVGEIIRNVKKLQEEGWLEKELNGRRGMFPDNFVKEIKR [G40K], the abundance fitness is -0.541 ± 0.18.

Take MVDYIVEYDYDAVHDDELTIRVGEIIRNVKKLQEEGWLEGELNGRFGMFPDNFVKEIKR [R46F]: the abundance fitness was -0.346 ± 0.2.

As to MVDYIVEYDYDAVHDDELTIRVGEIIRNVKKLQEEGWLEGELNGRQGMFPDNFVKEIKR [R46Q], the abundance fitness is -0.301 ± 0.21.

For the variant MVDYIVEYDYDAVHGDELTIRVGEIIRNVKKLQEEGWLEGELNGRRGMFPDNFVKEIKR [D15G], the abundance fitness was -0.051 ± 0.12.

MVDYIVEYDYDAVHADELTIRVGEIIRNVKKLQEEGWLEGELNGRRGMFPDNFVKEIKR [D15A]: the abundance fitness is -0.011 ± 0.092.

Take MVDYIVEYDYDAVHQDELTIRVGEIIRNVKKLQEEGWLEGELNGRRGMFPDNFVKEIKR [D15Q]: the abundance fitness was -0.008 ± 0.11.

For the variant MVDYIVEYDYDAVHDDELTIRVPEIIRNVKKLQEEGWLEGELNGRRGMFPDNFVKEIKR [G23P], the abundance fitness was -1.04 ± 0.33.
